Laboratory results published in publication PMC9508527, “Two-component carnitine monooxygenase from Escherichia coli: functional characterization, inhibition and mutagenesis of the molecular interface” (Bioscience Reports, 2022).

Columns and labels:
Experiment in all cases: cell-based or functional assay
YeaW variant D221S = molecular target: T1, YeaW variant D221S (E. coli, UniProt P0ABR7 1-374, D221S)
T1 sequence (looked up): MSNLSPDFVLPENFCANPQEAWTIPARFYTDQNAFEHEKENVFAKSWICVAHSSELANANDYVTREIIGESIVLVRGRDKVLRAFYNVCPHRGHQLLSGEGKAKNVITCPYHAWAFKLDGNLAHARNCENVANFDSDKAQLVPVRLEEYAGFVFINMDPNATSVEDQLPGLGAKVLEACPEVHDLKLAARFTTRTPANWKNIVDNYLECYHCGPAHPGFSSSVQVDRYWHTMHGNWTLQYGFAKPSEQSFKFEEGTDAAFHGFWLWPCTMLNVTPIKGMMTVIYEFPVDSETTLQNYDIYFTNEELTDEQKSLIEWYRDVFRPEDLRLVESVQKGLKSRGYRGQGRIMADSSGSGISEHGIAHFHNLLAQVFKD

YeaW variant K138E = molecular target: T2, YeaW variant K138E (E. coli, UniProt P0ABR7 1-374, K138E)
T2 sequence (looked up): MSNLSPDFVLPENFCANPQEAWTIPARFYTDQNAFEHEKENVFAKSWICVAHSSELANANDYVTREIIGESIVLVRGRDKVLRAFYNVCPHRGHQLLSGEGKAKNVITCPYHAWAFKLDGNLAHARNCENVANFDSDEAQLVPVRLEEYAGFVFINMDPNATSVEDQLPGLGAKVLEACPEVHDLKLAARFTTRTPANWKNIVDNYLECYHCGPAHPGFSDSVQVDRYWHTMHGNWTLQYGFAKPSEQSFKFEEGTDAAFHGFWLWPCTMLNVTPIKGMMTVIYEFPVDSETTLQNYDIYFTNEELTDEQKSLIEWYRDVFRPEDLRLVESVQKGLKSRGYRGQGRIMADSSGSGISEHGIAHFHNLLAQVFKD

YeaW variant E330S = molecular target: T3, YeaW variant E330S (E. coli, UniProt P0ABR7 1-374, E330S)
T3 sequence (looked up): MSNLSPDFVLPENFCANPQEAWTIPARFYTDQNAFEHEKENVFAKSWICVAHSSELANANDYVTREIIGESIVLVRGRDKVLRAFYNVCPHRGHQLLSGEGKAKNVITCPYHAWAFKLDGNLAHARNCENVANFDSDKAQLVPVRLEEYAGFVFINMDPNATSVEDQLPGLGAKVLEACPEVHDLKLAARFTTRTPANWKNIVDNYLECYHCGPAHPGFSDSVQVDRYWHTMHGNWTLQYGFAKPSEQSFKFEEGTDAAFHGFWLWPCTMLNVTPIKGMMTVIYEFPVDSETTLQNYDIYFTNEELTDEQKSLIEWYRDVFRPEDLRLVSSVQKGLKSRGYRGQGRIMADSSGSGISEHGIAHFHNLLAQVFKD

YeaW variant E330K = molecular target: T4, YeaW variant E330K (E. coli, UniProt P0ABR7 1-374, E330K)
T4 sequence (looked up): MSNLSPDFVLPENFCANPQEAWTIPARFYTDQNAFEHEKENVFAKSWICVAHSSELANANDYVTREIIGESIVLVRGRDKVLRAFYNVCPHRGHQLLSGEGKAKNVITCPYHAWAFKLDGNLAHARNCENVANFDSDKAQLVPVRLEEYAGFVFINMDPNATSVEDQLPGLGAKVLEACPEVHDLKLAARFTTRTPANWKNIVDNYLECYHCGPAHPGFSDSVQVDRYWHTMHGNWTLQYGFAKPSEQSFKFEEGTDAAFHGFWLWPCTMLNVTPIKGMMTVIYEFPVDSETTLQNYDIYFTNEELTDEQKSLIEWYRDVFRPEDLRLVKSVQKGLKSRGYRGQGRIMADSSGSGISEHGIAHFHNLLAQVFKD

YeaW variant R83K = molecular target: T5, YeaW variant R83K (E. coli, UniProt P0ABR7 1-374, R83K)
T5 sequence (looked up): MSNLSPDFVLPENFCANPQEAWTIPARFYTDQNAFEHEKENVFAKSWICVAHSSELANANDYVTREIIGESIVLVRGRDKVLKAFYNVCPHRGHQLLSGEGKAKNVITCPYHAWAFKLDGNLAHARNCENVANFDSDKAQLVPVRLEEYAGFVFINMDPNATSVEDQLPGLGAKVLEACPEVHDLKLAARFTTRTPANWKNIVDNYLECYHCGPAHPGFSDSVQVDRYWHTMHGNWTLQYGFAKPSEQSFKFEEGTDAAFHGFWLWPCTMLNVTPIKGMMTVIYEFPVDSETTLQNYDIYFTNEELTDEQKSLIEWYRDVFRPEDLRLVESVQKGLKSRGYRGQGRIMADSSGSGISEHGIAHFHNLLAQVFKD

YeaW variant R83Q = molecular target: T6, YeaW variant R83Q (E. coli, UniProt P0ABR7 1-374, R83Q)
T6 sequence (looked up): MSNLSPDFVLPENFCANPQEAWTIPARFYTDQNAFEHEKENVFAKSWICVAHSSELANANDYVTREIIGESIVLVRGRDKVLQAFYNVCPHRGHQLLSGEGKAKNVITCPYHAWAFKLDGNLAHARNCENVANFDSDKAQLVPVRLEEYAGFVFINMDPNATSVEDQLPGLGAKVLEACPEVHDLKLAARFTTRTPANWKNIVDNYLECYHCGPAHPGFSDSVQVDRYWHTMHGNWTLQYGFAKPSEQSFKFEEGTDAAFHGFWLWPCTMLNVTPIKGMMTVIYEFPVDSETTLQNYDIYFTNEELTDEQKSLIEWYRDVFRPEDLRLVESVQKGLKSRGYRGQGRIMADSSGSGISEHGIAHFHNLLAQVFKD

YeaW variant K117E = molecular target: T7, YeaW variant K117E (E. coli, UniProt P0ABR7 1-374, K117E)
T7 sequence (looked up): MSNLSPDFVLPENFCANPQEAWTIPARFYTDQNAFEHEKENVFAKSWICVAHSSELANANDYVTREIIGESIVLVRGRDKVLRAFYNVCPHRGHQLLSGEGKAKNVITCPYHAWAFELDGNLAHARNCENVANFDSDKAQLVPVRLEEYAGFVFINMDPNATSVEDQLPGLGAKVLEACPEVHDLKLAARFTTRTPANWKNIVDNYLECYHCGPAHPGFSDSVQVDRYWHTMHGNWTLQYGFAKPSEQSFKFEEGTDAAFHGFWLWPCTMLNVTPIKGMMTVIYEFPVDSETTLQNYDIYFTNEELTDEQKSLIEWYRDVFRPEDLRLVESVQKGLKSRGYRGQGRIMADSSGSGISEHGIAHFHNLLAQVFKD

B1: YeaX, reductase component of carnitine monooxygenase from E. coli (enzyme, UniProt P76254 1-321, looked up)
chain: MSDYQMFEVQVSQVEPLTEQVKRFTLVATDGKPLPAFTGGSHVIVQMSDGDNQYSNAYSLLSSPHDTSCYQIAVRLEENSRGGSRFLHQQVKVGDRLTISTPNNLFALIPSARKHLFIAGGIGITPFLSHMAELQHSDVDWQLHYCSRNPESCAFRDELVQHPQAEKVHLHHSSTGTRLELARLLADIEPGTHVYTCGPEALIEAVRSEAARLDIAADTLHFEQFAIEDKTGDAFTLVLARSGKEFVVPEEMTILQVIENNKAAKVECLCREGVCGTCETAILEGEADHRDQYFSDEERASQQSMLICCSRAKGKRLVLDL
L-carnitine depletion activity (wild type = 100%) (YeaW variant D221S): 91% | O2 depletion activity (wild type = 100%) (YeaW variant D221S): 99% | L-carnitine depletion activity (wild type = 100%) (YeaW variant K138E): 100% | O2 depletion activity (wild type = 100%) (YeaW variant K138E): 102% | L-carnitine depletion activity (wild type = 100%) (YeaW variant E330S): 92% | O2 depletion activity (wild type = 100%) (YeaW variant E330S): 85% | L-carnitine depletion activity (wild type = 100%) (YeaW variant E330K): 55% | O2 depletion activity (wild type = 100%) (YeaW variant E330K): 67% | L-carnitine depletion activity (wild type = 100%) (YeaW variant R83K): 76% | O2 depletion activity (wild type = 100%) (YeaW variant R83K): 79% | L-carnitine depletion activity (wild type = 100%) (YeaW variant R83Q): 51% | O2 depletion activity (wild type = 100%) (YeaW variant R83Q): 59% | L-carnitine depletion activity (wild type = 100%) (YeaW variant K117E): 63% | O2 depletion activity (wild type = 100%) (YeaW variant K117E): 75%
